Results on 3 molecules are retold here after patent US20140336126A1 (INSTITUT PASTEUR, published 2014).

To fix the notation:
B1: myosin phosphatase targeting subunit 1 (MYPT1) (other)
chain: MKMADAKQKRNEQLKRWIGSETDLEPPVVKRQKTKVKFDDGAVFLAACSSGDTDEVLKLLHRGADINYANVDGLTALHQACIDDNVDMVKFLVENGANINQPDNEGWIPLHAAASCGYLDIAEFLIGQGAHVGAVNSEGDTPLDIAEEEAMEELLQNEVNRQGVDIEAARKEEERIMLRDARQWLNSGHINDVRHAKSGGTALHVAAAKGYTEVLKLLIQAGYDVNIKDYDGWTPLHAAAHWGKEEACRILVDNLCDMEMVNKVGQTAFDVADEDILGYLEELQKKQNLLHSEKRDKKSPLIESTANMDNNQSQKTFKNKETLIIEPEKNASRIESLEQEKVDEEEEGKKDESSCSSEEDEEDDSESEAETDKTKPLASVTNANTSSTQAAPVAVTTPTVSSGQATPTSPIKKFPTTATKISPKEEERKDESPATWRLGLRKTGSYGALAEITASKEGQKEKDTAGVTRSASSPRLSSSLDNKEKEKDSKGTRLAYVAPTIPRRLASTSDIEEKENRDSSSLRTSSSYTRRKWEDDLKKNSSVNEGSTYHKSCSFGRRQDDLISSSVPSTTSTPTVTSAAGLQKSLLSSTSTTTKITTGSSSAGTQSSTSNRLWAEDSTEKEKDSVPTAVTIPVAPTVVNAAASTTTLTTTTAGTVSSTTEVRERRRSYLTPVRDEESESQRKARSRQARQSRRSTQGVTLTDLQEAEKTIGRSRSTRTREQENEEKEKEEKEKQDKEKQEEKKESETSREDEYKQKYSRTYDETYQRYRPVSTSSSTTPSSSLSTMSSSLYASSQLNRPNSLVGITSAYSRGITKENEREGEKREEEKEGEDKSQPKSIRERRRPREKRRSTGVSFWTQDSDENEQEQQSDTEEGSNKKETQTDSISRYETSSTSAGDRYDSLLGRSGSYSYLEERKPYSSRLEKDDSTDFKKLYEQILAENEKLKAQLHDTNMELTDLKLQLEKATQRQERFADRSLLEMEKRERRALERRISEMEEELKMLPDLKADNQRLKDENGALIRVISKLSK
notes: also called HA-MYPT1; HA-tagged-MYPT1

Test [1] has as its target T1, Optineurin (Optn), wild type (human, UniProt Q96CV9 1-577).
T1 construct: Full-length wild-type human Optn; also called Optn WT; HA-Optn
In words: TAP and co-immunoprecipitations, title of FIG. 4.

The target in test [2] is B1. In words: anti-MYPT1 immunoprecipitation, anti-HA Western blot, transfected HeLa cells (FIG. 4D). A general note: Immunoblotting shows a protein as a band on a membrane.
The target in test [3] is B1. The test is described as follows: anti-Flag immunoprecipitation of Flag-PP1β, transfected HEK-293T cells (FIG. 4B).

With B1, the binding result in test [1] was “binds”.

B2: HA-Optn Δ131-297 (other)
chain: MSHQPLSCLTEKEDSPSESTGNGPPHLAHPNLDTFTPEELLQQMKELLTENHQLKEAMKLNNQAMKGRFEELSAWTEKQKEERQFFEIQSKEAKERLMALSHENEKLKEELGKLKGKSERSSEDPTDDSREVEALNLQVTSLFKELQEAHTKLSKAELMKKRLQEKCQALERKNSAIPSELNEKQELVYTNKKLELQVESMLSEIKMEQAKTEDEKSKLTVLQMTHNKLLQEHNNALKTIEELTRKESEKVDRAVLKELSEKLELAEKALASKQLQMDEMKQTIAKQEEDLETMTILRAQMEVYCSDFHAERAAREKIHEEKEQLALQLAVLLKENDAFEDGGRQSLMEMQSRHGARTSDSDQQAYLVQRGAEDRDWRQQRNIPIHSCPKCGEVLPDIDTLQIHVMDCII
Consider B2, for which the binding result in test [2] is given as “no binding”.

B3: type 1 protein phosphatase catalytic subunit PP1β (enzyme, UniProt P62140 1-327, looked up)
chain: MADGELNVDSLITRLLEVRGCRPGKIVQMTEAEVRGLCIKSREIFLSQPILLELEAPLKICGDIHGQYTDLLRLFEYGGFPPEANYLFLGDYVDRGKQSLETICLLLAYKIKYPENFFLLRGNHECASINRIYGFYDECKRRFNIKLWKTFTDCFNCLPIAAIVDEKIFCCHGGLSPDLQSMEQIRRIMRPTDVPDTGLLCDLLWSDPDKDVQGWGENDRGVSFTFGADVVSKFLNRHDLDLICRAHQVVEDGYEFFAKRQLVTLFSAPNYCGEFDNAGGMMSVDETLMCSFQILKPSEKKAKYQYGGLNSGRPVTPPRTANPPKKR
notes: Endogenous protein or transfected Flag-tagged PP1β (ImaGenes), as said under assay; also called PP1cβ; Flag-tagged-PP1β
As for B3, the binding result in test [3] was “binds”.
